Reference: PMC2241890
Numbering of substitutions follows the chain as printed. Where two headings read alike, the source gives them in different places.

Experiments:
Assay in all cases: EMSA
[1] = target: T1, HU alpha-beta heterodimer (Escherichia coli, UniProt P0ACF0;P0ACF4 1-90;1-90)
[2] = target: T1, HU alpha-beta heterodimer; remark: listed apart in the source
[3] = target: T1, HU alpha-beta heterodimer; remark: listed apart in the source
[4] = target: T1, HU alpha-beta heterodimer; remark: listed apart in the source
[5] = target: T1, HU alpha-beta heterodimer; remark: listed apart in the source
[6] = target: T1, HU alpha-beta heterodimer; remark: listed apart in the source
[7] = target: T1, HU alpha-beta heterodimer; remark: listed apart in the source
[8] = target: T1, HU alpha-beta heterodimer; remark: listed apart in the source
[9] = target: T1, HU alpha-beta heterodimer; remark: listed apart in the source
[10] = target: T1, HU alpha-beta heterodimer; remark: listed apart in the source

T1 sequence (P0ACF0 whole entry, chain 1 of 2): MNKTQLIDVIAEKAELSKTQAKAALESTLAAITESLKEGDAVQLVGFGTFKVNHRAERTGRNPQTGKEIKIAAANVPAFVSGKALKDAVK
T1 sequence (P0ACF4 whole entry, chain 2 of 2): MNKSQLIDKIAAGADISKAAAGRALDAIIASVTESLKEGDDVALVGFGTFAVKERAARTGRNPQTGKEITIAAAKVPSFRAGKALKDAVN

B1: mismatch 4 (dsDNA)
DNA 1: AGTCTAGACTGCAGTTGAGTCCTTGCTAGGACGGATCCCT
DNA 2: AGGGATCCGTCCTAGCAAATGTTCAACTGCAGTCTAGACT
[1]
  Kd: 21 nM

B2: mismatch 6 (dsDNA)
DNA 1: B1 DNA 1
DNA 2: B1 DNA 2 with A18G, T23A
[2]
  Kd: 6 nM

## AGTCTAGAGTGCAGTTGAGTCCTTGCTA (ssDNA) [ssDNA D-28]
[3]
  Kd: 755 nM

## AGTCTAGAGTGCAGTTGAGTCCTTGCTACGAC (ssDNA) [ssDNA D-32]
[4]
  Kd: 114 nM

## AGTCTAGAGTGCAGTTGAGTCCTTGCTACGACGGAT (ssDNA) [ssDNA D-36]
[5]
  Kd: 80 nM

## AGTCTAGAGTGCAGTTGAGTCCTTGCTACGACGGATCCCT (ssDNA) [ssDNA D-40]
[6]
  Kd: 54 nM

## AGTCTAGAGTGCAGTTGAGTCCTTGCTACGACGGATCCCTTAGG (ssDNA) [ssDNA D-44]
[7]
  Kd: 40 nM

## AGTCTAGAGTGCAGTTGAGTCCTTGCTACGACGGATCCCTTAGGTCAG (ssDNA) [ssDNA D-48]
[5]
  Kd: 41 nM

B3: mismatch 8 (dsDNA)
DNA 1: B1 DNA 1
DNA 2: B1 DNA 2 with A17T, A18G, T23A, C24G
[2]
  Kd: 6 nM

## AGTCTAGAGTGCAGTTGAGTCCTT (ssDNA) [ssDNA D-24]
[8]
  binding result: binds

B4: mismatch 10 (dsDNA)
DNA 1: B1 DNA 1
DNA 2: AGGGATCCGTCCTAGTTGATGTAGCACTGCAGTCTAGACT
[2]
  Kd: 6 nM

B5: nicked 40 (dsDNA)
DNA 1: B1 DNA 1 with C9G, G29C
DNA 2: AGGGATCCGTCGTAGCAAGG
DNA 3: ACTCAACTGCACTCTAGACT
[9]
  Kd: 3 nM

B6: dsDNA 40 (dsDNA)
DNA 1: B1 DNA 1 with C9G, G29C
DNA 2: AGGGATCCGTCGTAGCAAGGACTCAACTGCACTCTAGACT
[10]
  Kd: 7 nM
